[ ]: non-standard residue; d: D form. Hyp = O=C(O)[C@@H]1C[C@@H](O)CN1

Drawing on patent US20030092609A1, this text covers IC50 and Inhibition of forskoline stimulated cAMP formation in CHO cells, EC50 for 5 molecules.

The target in assay [1] is AAP receptors in CHO cells. Briefly: in situ displacement of [125I]AAP10 on intact CHO cells.
For assay [2], the target named is [125I]AAP10 binding site in murine heart tissue preparations. In words: displacement of 0.8 nM [125I]AAP10 from murine heart membranes.
Assay [3] has the same target. In words: displacement of 0.8 nM [125I]AAP10 from murine heart filtrate.
Assay [4] addresses AAP receptors in CHO cells. In words: cell-based or functional assay.

Take “Ac-D-Tyr(3,5-di-I)-D-Pro-D-Hyp-Gly-D-Ala-Gly-NH2 (Compound 24) (peptide)”: the IC50 in assay [1] is 65 nM.

For the molecule “Ac-D-Tyr-D-Pro-D-4Hyp-Gly-D-Ala-Gly-NH2 (Compound 2) (peptide)”, the IC50 in assay [1] amounted to 0.5 nM; in assay [2], 1.2 nM; in assay [3], 3.6 nM. This molecule returned an Inhibition of forskoline stimulated cAMP formation in CHO cells, EC50 in assay [4] of 6.2 nM.

B1: ASAL(mono-iodo)-Pro-Hyp-Gly-Ala-Gly-NH2 (Compound 32) (peptide)
chain: {ASAL(3-I)}-P[Hyp]GAG-NH2
As to B1, the IC50 in assay [1] turned out to be 0.5 nM.

B2: H-Gly-Ala-Gly-Hyp-Pro-Tyr-NH2 (AAP10) (peptide)
chain: H-GAG[Hyp]PY-NH2
With B2, the IC50 in assay [1] was 130 nM; in assay [3] it was 1.2 nM. The Inhibition of forskoline stimulated cAMP formation in CHO cells, EC50 in assay [4] was 11 nM.

B3: H-Gly-Pro-Hyp-Gly-Ala-Gly-OH (AAP, antiarrhythmic peptide) (peptide)
chain: H-GP[Hyp]GAG-OH
SMILES: C[C@H](NC(=O)CNC(=O)[C@@H]1C[C@@H](O)CN1C(=O)[C@@H]1CCCN1C(=O)CN)C(=O)NCC(=O)O
Consider B3, for which the figures for the IC50 in assay [1] and in assay [3] were 0.8 nM and 1.2 nM, respectively. The same molecule registered an Inhibition of forskoline stimulated cAMP formation in CHO cells, EC50 in assay [4] of 53 nM.

Broadly, the IC50 is the concentration that inhibits the measured activity by half.
